Test results from patent US20130022590A1, “Compositions Comprising Zinc Finger Domains and Uses Therefor” (priority 2009, published 2013).

Experiments:
[1] = test system: ssRNA containing two AGGUAA sites (AGGUAAAGGUAA, SEQ ID NO: 26); test: Fluorescence anisotropy titration, double-site ssRNA; format: binding
Experimental: Fluorescence Anisotropy titrations e.g., as shown in FIGS. 1D-F, 8 and 35, were carried out using standard protocols. In brief, 5′-Fluorescein-labeled RNA oligonucleotides were quantified by A260, correcting for fluorescein absorbance by using A493. For single-site experiments, the sequence GCAACCAGGUAAAGUCU (SEQ ID NO: 28), or single base mutants thereof, was used. For double-site experiments, two AGGUAA sites were separated by different length sequences as indicated, and the total oligonucleotide lengths were kept constant by the symmetrical addition of adenines to each end. The anisotropy titrations were performed with a starting RNA concentration of 50 nM in a buffer comprising either 10 mM Tris (pH 8.0), 50 mM KCl, 5 mM MgCl2, 0.05 mg/mL heparin, and 1 mM DTT (for GST fusion constructs) or 10 mM Mops (pH 7.3), 50 mM NaCl, 0.05 mg/mL heparin, and 1 mM DTT (for ZRANB2-F12). RNasin (Promega) was also added to the protein solution to a concentration of 2 units/μL. Protein was titrated into this starting solution and anisotropy values measured on a Cary Eclipse fluorescence spectrophotometer fitted with manual polarizer and long-pass filters set to 475 and 515 nm for excitation and emission, respectively. Excitation and emission wavelengths were set at 495 and 520 nm, respectively (10-nm slits) and the temperature was maintained at 25° C. by using a block temperature controller. Association constants were determined by nonlinear least squares regression analysis using a 1:1 binding model.
The importance of the spacing between AGGUAA motifs was assessed by measuring binding of F12 to double sites that were separated by −1 to 8 nt (where −1 denotes the sequence AGGUAAGGUAA SEQ ID NO: 33; FIG. 1E, lanes 5-10).

[2] = test system: 5′ splice site from exon 3 of the Tra2β minigene (CUCUGAAUCUAGGUAAGAAAG); test: Surface plasmon resonance competition binding; conditions: 750 nM F12, 1 molar equivalent competitor RNA; compared with exons 1 and 2
Experimental: Competition binding experiments were carried out by flowing a solution of F12 over a streptavidin chip coated with a biotinylated ssRNA oligonucleotide (containing the sequence AGGUAA) in the presence of an unlabeled competitor oligonucleotide.
Binding experiments were performed in triplicate at 25° C. on a BIACORE 3000 (Biacore). A 5′ biotin-labeled RNA oligonucleotide containing the 5′ splice site from exon 3 of the Tra2β minigene ([…]; SEQ ID NO: 29) was purified by size exclusion chromatography (Superdex 75), and unlabeled competitor oligonucleotides i.e., GCGAGCGGUACGUAGA from exon 1 (SEQ ID NO: 30), AGGAAUAAGUGAAGCUG from exon 2 (SEQ ID NO: 31), and […] from exon 3 (SEQ ID NO: 32) were used without further purification. Protein and RNA samples were dialysed into 10 mM sodium phosphate (pH 7.2), 50 mM NaCl, 1 mM DTT, and 0.005% NP20 and filtered. The biotinylated RNA was heated to 65° C. for 5 min, cooled on ice, and then immobilized onto a streptavidin-coated sensor chip to a total of approximately 160 relative units. Solutions of 750 nM F12 in the presence of 1 molar equivalent of each competitor RNA were injected in random order over the sensor chip (at a flow rate of 20 μL/min for 120 sec) and allowed to undergo a 120-sec dissociation time; a further 300-sec interval was allowed between injections. Data were analyzed by using BIA Evaluation software (Biacore). […]

[3] = test system: ssRNA pool containing a randomized 25-nt sequence; test: SELEX in vitro site selection; format: binding; conditions: up to 13 rounds of selection
Experimental: A ZRANB2-F12 SELEX protocol was developed, based on that used by Sakashita E. and Sakamoto H.1994 Acids Res 22:4082-4086. In brief, a library of ssRNA sequences was incubated with GST-F12 on glutathione Sepharose beads, and after washing protein—RNA complexes were eluted with glutathione and the selected RNA was reverse-transcribed and amplified by PCR. Sequencing of selected sequences was carried out after 7, 9, and 13 rounds of selection.
An oligonucleotide harbouring a 25-nucleoride (nt) random sequence surrounded by 2 primer binding sites with an estimated complexity of 1.2×10^12 (sampling complete sequence space for 20-nt sequences) was amplified by 10 rounds of PCR as previously described in Sakashita E., and Sakamoto H.1994 Nucleic Acids Res 22: 4082-4086, then purified by using a QIAquick gel extraction kit (e.g., QIAGEN) according to manufacturer's instructions. RNA was transcribed from 13 pmol of dsDNA template, then extracted with phenol/chloroform and ethanol-precipitated according to established methods in the art. The RNA pellet was resuspended in water […], and unincorporated nucleotides were removed by Sephadex G-25 Quick Spin columns (Roche). RNA was quantified by absorbance at 260 nm.
Binding reactions were carried out in SELEX buffer [10 mM Mops (pH 7.0), 50 mM KCl, 5 mM MgCl2, 5% glycerol, 1 mM DTT, 0.1% Triton, […], Complete protease inhibitor]. […]

[4] = test system: 17-nt RNA oligonucleotide containing a single AGGUAA motif; test: Gel shift assay of F12 with 17-nt oligonucleotide; format: binding
Experimental: Gel Shift assays e.g., FIGS. 1B, 32A, were carried out using standard protocols. In brief, oligonucleotides were 5′ end-labelled with T4 polynucleotide kinase and annealed. Binding reactions were set up in a volume of 30 μL and contained a constant concentration of ^32P-labeled probe (0.1 pmol) and increasing concentrations of F12, in a buffer consisting of 10 mM Mops (pH 7.2), 50 mM KCl, 5 mM MgCl2, 1 mM DTT, 0.03 mg/mL heparin, and 5% glycerol. Binding reactions were set up on ice and incubated at 4° C. for 30 min, after which time 15 μL of each sample was loaded onto a prerun 8% native polyacrylamide gel made up in 0.5× Tris-borate buffer, and electrophoresed (250V, 1 h, 4° C.). The oligonucleotide sequence used for gel shift experiments was GCAACCAGGUAAAGUCU (SEQ ID NO: 28); the site was mutated by changing the central GGU to CUG.
To determine whether the AGGUAA motif was sufficient for binding, the binding of the double finger construct F12 to a 17-nt RNA oligonucleotide containing a single AGGUAA motif was tested as described in Section 1.4 above with dsDNA, ssDNA, and dsRNA also tested as controls.

B1: F12: F1 and F2 domains, residues 1-95 of human ZRANB2 (protein, UniProt O95218 1-95, looked up, fragment)
chain: MSTKNFRVSDGDWICPDKKCGNVNFARRTSCNRCGREKTTEAKMMKAGGTEIGKTLAEKSRGLFSANDWQCKTCSNVNWARRSECNMCNTPKYAK
modifications: F1-F2 zinc fingers GST fusion in some uses
notes: F1 and F2 domains, residues 1-95 of human ZRANB2
effect on binding of scrambling both sites ([1]; FIG. 1E, lane 3): effectively eliminated binding | affinity (association constant) for AGGUAAAGGUAA ([1]; FIG. 1E, lane 6): 1.9e+07 M⁻¹ | affinity for double site with cytosine-rich spacer versus penta-adenine spacer ([1]; FIG. 1E, lanes 10 and 8): same affinity | affinity versus spacing between AGGUAA motifs ([1]; double sites separated by −1 to 8 nt, adenines inserted): increased monotonically | effect on binding of randomizing one of the AGGUAA motifs ([1]; sequence AGAAUGAGGUAA, FIG. 1E, lane 4): reduced the binding by a small, but reproducible, amount | reduction in binding to the chip by competitor 5′ splice site oligonucleotide of exon 3 [2]: largest reduction in binding | consensus ssRNA sequence recognized [3]: AGGUAA(N1-8)AGGUAA | effect of mutation of the central GGU to CUG [4]: abrogated the interaction | nucleic acid type selectivity of the interaction ([4]; dsDNA, ssDNA, dsRNA tested as controls): strongly selective for ssRNA
